One experiment deals with T1, human PLK1-PBD (371-594) (Homo sapiens, UniProt P53350).
T1 construct: The human PLK1-PBD (371-594) was amplified by PCR; GST (N, cleaved yes); made in house; host or cells: E. coli Rosetta2(DE3)pLysS
The experiment can be described thus: Fluorescence polarisation binding assay for the PBD of PLK1. Particulars: FITC-labelled peptide 10 nM, protein 0 to 4 μM. As to the method: The human PLK1-PBD (371-594) was amplified by PCR and cloned into the pGEX6p-1 vector using the EcoRI and XhoI restriction enzyme sites. The protein was overexpressed in E. coli Rosetta2(DE3)pLysS cells (Novagen). The cells were grown at 37° C. in 3 L of Terrific Broth medium to an OD600 of 0.6, and recombinant protein expression was induced with 0.1 mM isopropyl β-D-thiogalactopyranoside (IPTG) at 20° C. The cells were further grown at 20° C. for 20 hr after IPTG induction. The purification methods were similar to methods that have been previously reported (Cheng, K. Y., et al. The crystal structure of the human polo-like kinase-1 polo box domain and its phospho-peptide complex. EMBO J 22, 5757-68 (2003)). Briefly, the cell pellet was resuspended in ice-cold HBS buffer (10 mM HEPES pH 7.5, 200 mM NaCl, 3.4 mM EDTA, 0.01% (v/v) 1-thioglycerol) and homogenized by sonication. After sonication, the cell debris was centrifuged and supernatant was applied to GST Sepharose resin (GE Healthcare). After extensive washing with HBS buffer, protein was eluted with HBS buffer supplemented with 20 mM reduced glutathione. PreScission protease (GE Healthcare) was added to eluted protein in order to remove the fused GST and the cleavage product was diluted and re-passed through GST Sepharose column. The flow through was collected and applied to Superdex 75 prep grade column (GE Healthcare) equilibrated with HBS buffer. The purified protein was concentrated to 6 mg/ml and used for fluorescence polarization binding assay or crystal screening.
For the fluorescence polarisation binding assay, FITC-labelled 1010pT (GVLSpTLI) or 1010T (GVLSTLI) (SEQ ID NO: 8) peptide was mixed with purified PBD and incubated in a buffer containing 10 mM HEPES (pH7.5), 50 mM NaCl, 1 mM EDTA, 1 mM DTT, and 0.0025% (v/v) Tween 20. The final protein concentrations ranged from 0 to 4 μM, and the final peptide concentration was 10 nM. Fluorescence polarisation was analysed 30 min after mixing the peptide and proteins in a 96-well plate using a VERSAmax microplate reader (Molecular Devices). Binding curves were fitted using GraphPad Prism software (GraphPad Software).
The human PLK1-PBD (371-594), PLK2-PBD (451-685) and PLK3-PBD (412-646) genes were cloned into pGEX6p-1 vector using EcoRI/XhoI restriction sites. […] The purified PLK-PBD proteins were concentrated and used for the fluorescence polarization binding assay.
For the fluorescence polarization binding assay, each fluorescein isothiocyanate (FITC)-labeled 1010pT (GVLSpTLI), 1010T (GVLSTLI), 1010E (GVLSELI), or 1010D (GVLSDLI) peptide was mixed with purified PLK1, PLK2 or PLK3 and incubated in a buffer containing 10 mM HEPES (pH 7.5), 50 mM NaCl, 1 mM EDTA, 1 mM DTT and 0.0025% (v/v) Tween 20. […]
Background: Polarisation of emitted light reports the rotation of a fluorescent probe.

Experiment [1] deals with HuR-7 human hepatoma cell. Description: Cell survival and nucleus morphology of hepatoma cells treated with FITC-tagged NCAPG2 peptides (Opera Phenix). The experiment is classed as cell-based. Particulars: HuR-7, FITC-tagged peptide. The source says: FIG. 12 illustrates NCAPG2 p The1010 (VLSpTL) and NCAPG2 The1010 (VLSTL) peptide decreased cell survival and induced mitotic defect in HuR-7 human hepatoma cell. Cell survival and nucleus morphology were detected from Opera Phenix system (PerkinElmer).

The target of a further experiment is T2, PLK1 (Homo sapiens, UniProt P53350).
T2 construct: expressed in transfected cells
Description: Pull down assay / immunoprecipitation of Flag-tagged NCAPG2 mutants with GST-tagged PLK1. Type of experiment: binding. From the text: The NCAPG2 expression vectors were constructed using pcDNA3.1, pCMV-3FLAG-1, and pLL3.7 vectors with KpnI/XhoI, EcoRV/XhoI, and SmaI/XhoI restriction enzyme sites, respectively. To produce siRNA-resistant NCAPG2 mutants (Lenti-NCAPG2^R), the mutants (forward primer: 5′ GAAGACTACCTGAAGCTTCACAGA GTGATT TATCAGCAAATTATCCAGACCTACCTG-3′ (SEQ ID NO: 3), reverse primer: 5′-CAGGTAGGTCTGGATAATTTGCTGATAAATCACTCTGTGAAGCTTCAGGTAGTCTTCTTC-3′ (SEQ ID NO: 4)) were generated using a QuikChange Site-Directed Mutagenesis Kit (Stratagene). […]
For the detection of proteins using the immunoblottings, subjects were protein complexes from immunoprecipitation or whole cell lysates harvested from indicated conditions. […] Protein concentration was determined using BCA™ protein assay kit (Pierce, Rockford, USA). […] Protein expressions detected chemiluminescent signals activated by SuperSignal West Pico Chemiluminescent Substrate (Pierce Rockford, Ill., USA) reacted with horse radish peroxidase tagged secondary antibodies (Jackson ImmunoResearch Laboratories, Inc., West Grove, USA).

Changes are numbered by the printed parent chain. Names may count otherwise. Where no end group is shown, it is not given here. [ ]: non-standard residue; d: D form. pT = C[C@@H](OP(=O)(O)O)[C@H](N)C(=O)O

T1 sequence (P53350 371-594): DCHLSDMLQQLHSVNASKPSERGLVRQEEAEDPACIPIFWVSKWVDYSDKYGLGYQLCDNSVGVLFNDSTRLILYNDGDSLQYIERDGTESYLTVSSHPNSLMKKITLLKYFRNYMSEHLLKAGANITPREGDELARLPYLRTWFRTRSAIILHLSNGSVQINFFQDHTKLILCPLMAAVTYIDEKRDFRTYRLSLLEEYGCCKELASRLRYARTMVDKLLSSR
T2 sequence (P53350 whole entry): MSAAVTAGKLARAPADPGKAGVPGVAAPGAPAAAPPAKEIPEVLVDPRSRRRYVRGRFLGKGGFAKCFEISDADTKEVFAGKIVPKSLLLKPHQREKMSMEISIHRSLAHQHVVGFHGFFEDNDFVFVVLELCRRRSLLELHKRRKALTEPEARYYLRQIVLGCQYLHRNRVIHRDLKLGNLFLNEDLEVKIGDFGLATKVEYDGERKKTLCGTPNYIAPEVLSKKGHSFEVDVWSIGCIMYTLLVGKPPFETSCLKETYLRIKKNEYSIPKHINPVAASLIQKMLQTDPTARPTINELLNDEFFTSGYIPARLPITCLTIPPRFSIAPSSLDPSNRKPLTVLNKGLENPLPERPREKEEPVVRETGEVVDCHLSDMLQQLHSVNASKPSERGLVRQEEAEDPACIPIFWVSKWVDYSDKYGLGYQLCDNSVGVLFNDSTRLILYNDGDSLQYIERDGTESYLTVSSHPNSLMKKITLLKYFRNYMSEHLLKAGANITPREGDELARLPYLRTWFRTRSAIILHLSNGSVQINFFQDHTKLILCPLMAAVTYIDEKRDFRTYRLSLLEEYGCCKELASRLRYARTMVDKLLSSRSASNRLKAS

Consider “GVLSDLI [1010D, 7-mer peptide with aspartate as phosphor-Thr mimetic]”, for which the “binding to PLK1-PBD (in words)” value with human PLK1-PBD (371-594) is on record as “did not bind”. On to “GVLSELI [1010E, 7-mer peptide with glutamate as phosphor-Thr mimetic]”, for which the “binding to PLK1-PBD (in words)” value in the experiment with human PLK1-PBD (371-594) is “did not bind”. In the case of “VLSTL (listed as Homo sapiens) [NG2 The1010]”, in experiment [1], the effect on mitosis entry was “induced abnormal mitosis” and the “survival rate of human liver cancer cell” value is “lowered survival rate”. In the case of “VLSpTL (VLS[pT]L; listed as Homo sapiens) [NG2 p The1010, phosphorylated 5-mer NCAPG2 peptide comprising residue 1010]”, in experiment [1], the effect on mitosis result is reported as “induced abnormal mitosis” and the “survival rate of human liver cancer cell” value is given as “lowered survival rate”.

B1: T1010A: NCAPG2 mutant which substituted threonine with alanine at the residue number 1010 of SEQ ID NO: 7 (protein, listed as Homo sapiens)
chain: MEKRETFVQAVSKELVGEFLQFVQLDKEASDPFSLNELLDELSRKQKEELWQRLKNLLTDVLLESPVDGWQVVEAQGEDNMETEHGSKMRKSIEIIYAITSVILASVSVINESENYEALLECVIILNGILYALPESERKLQSSIQDLCVTWWEKGLPAKEDTGKTAFVMLLRRSLETKTGADVCRLWRIHQALYCFDYDLEESGEIKDMLLECFININYIKKEEGRRFLSCLFNWNINFIKMIHGTIKNQLQGLQKSLMVYIAEIYFRAWKKASGKILEAIENDCIQDFMFHGIHLPRRSPVHSKVREVLSYFHHQKKVRQGVEEMLYRLYKPILWRGLKARNSEVRSNAALLFVEAFPIRDPNLHAIEMDSEIQKQFEELYSLLEDPYPMVRSTGILGVCKITSKYWEMMPPTILIDLLKKVTGELAFDTSSADVRCSVFKCLPMILDNKLSHPLLEQLLPALRYSLHDNSEKVRVAFVDMLLKIKAVRAAKFWKICPMEHILVRLETDSRPVSRRLVSLIFNSFLPVNQPEEVWCERCVTLVQMNHAAARRFYQYAHEHTACTNIAKLIHVIRHCLNACIQRAVREPPEDEEEEDGREKENVTVLDKTLSVNDVACMAGLLEIIVILWKSIDRSMENNKEAKLYTINKFASVLPEYLKVFKDDRCKIPLFMLMSFMPASAVPPFSCGVISTLRSREEGAVDKSYCTLLDCLCSWGQVGHILELVDNWLPTEHAQAKSNTASKGRVQIHDTRPVKPELALVYIEYLLTHPKNRECLLSAPRKKLNHLLKALETSKADLESLLQTPGGKPRGFSEAAAPRAFGLHCRLSIHLQHKFCSEGKVYLSMLEDTGFWLESKILSFIQDQEEDYLKLHRVIYQQIIQTYLTVCKDVVMVGLGDHQFQMQLLQRSLGIMQTVKGFFYVSLLLDILKEITGSSLIQKTDSDEEVAMLLDTVQKVFQKMLECIARSFRKQPEEGLRLLYSVQRPLHEFITAVQSRHTDTPVHRGVLSALIAGPVVEISHQLRKVSDVEELTPPEHLSDLPPFSRCLIGIIIKSSNVVRSFLDELKACVASNDIEGIVCLTAAVHIILVINAGKHKSSKVREVAATVHRKLKTFMEITLEEDSIERFLYESSSRTLGELLNS
For the molecule B1, the “binding of NCAPG2 mutant to PLK1” value in the experiment with PLK1 was “inhibited”.

B2: T805A: NCAPG2 mutant which substituted threonine with alanine at the residue number 805 of SEQ ID NO: 7 (protein, listed as Homo sapiens)
chain: B1 chain with T805A, A1010T
For the molecule B2, the “binding of NCAPG2 mutant to PLK1” value with PLK1 is on record as “inhibited”.

The values above are taken from patent US9562084B2, “Peptides derived from NCAPG2 and their use” (NATIONAL CANCER CENTER, priority 2014, dated 2017).
